Experimental data taken from patent US5646120, “Peptide-based inhibitors of HIV replication” (Allelix Biopharmaceuticals, Inc.).

T1: Tat basic domain wild-type oligopeptide ([…]) (HIV-1, UniProt P04608 P04608:49-57)
T1 chain: RKKRRQRRR


Legend:
HIV-1 Tat(1-86) = HIV-1 Tat(1-86) (HIV-1, UniProt P04608 P04608:1-86); experiment: EMSA; TAR variant stated not to bind tat; settings: hairpin
[1] = target: T1, Tat basic domain wild-type oligopeptide …; experiment: EMSA; affinity similar to tat(1-86); settings: protein: synthetic; tags: synthetic L-peptide, American Peptide Company; hairpin

| Binder | binding result (HIV-1 Tat(1-86)) | binding result [1] |
| --- | --- | --- |
| GGAGAACUGAGCCUGGGAGCUCUCUCC (ssRNA) [TAR variant not binding tat] | no binding |  |
| GGAGAUCUGAGCCUGGGAGCUCUCUCC (ssRNA) [truncated functional TAR RNA] |  | binds |
